# Measured values as given in US20070243583A1 (University of Texas, published 2007).
# T1: RNase A (UniProt P61823 27-150)
# T1 sequence (looked up): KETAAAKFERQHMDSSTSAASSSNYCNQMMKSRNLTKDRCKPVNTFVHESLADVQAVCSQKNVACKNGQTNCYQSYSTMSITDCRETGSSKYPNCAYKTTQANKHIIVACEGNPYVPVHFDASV
# How the values were obtained:
# [1] = target: citrate synthase
# [2] = target: insulin
# [3] = target: T1, RNase A; assay: cell-based or functional assay
# [4] = target: the molecule itself; assay: gel filtration FPLC of the purified protein (self-association, homodimer)
Binder,"Citrate Synthase Inactivation, CS t1/2 [1] [min]","Citrate Synthase Inactivation, µ [1] [min - 1]",Insulin Reduction (*10^3 DA650 nm/min^-2) [2],RNAse Refolding [3] [µM/min/µM Enzyme],binding result [4]
FkpA-DsbA2 (protein) AEAAKPATAADSKAAFKNDDQKSAYALGASLGRYMENSLKEQEKLGIKLDKDQLIAGVQDAFADKSKLSDQEIEQTLQAFEARVKSSAQAKMEKDAADNEAKGKEYREKFAKEKQYEDGKQYTTLEKPVAGAPQVLEFFSFFCPHCYQFEEVLHISDNVKKKLPEGVKMTKYHVNFMGGDLGKDLTQAWAVAMALGVEDKVTVPLFEGVQKTQTIRSASDIRDVFINAGIKGEEYDAAWNSFVVKSLVAQQEKAAADVQLRGVPAMFVNGKYQLNPQGMDTSNMDVFVQQYADTVKYLSEKKHHHHHH,2.46,0.17,0.45,,
FkpA-DsbA5 (protein) AEAAKPATAADSKAAFKNDDQKSAYALGASLGRYMENSLKEQEKLGIKLDKDQLIAGVQDAFADKSKLSDQEIEQTLQAFEARVKSSAQAKMEKDAADNEAKGKEYREKFAKEKDGKQYTTLEKPVAGAPQVLEFFSFFCPHCYQFEEVLHISDNVKKKLPEGVKMTKYHVNFMGGDLGKDLTQAWAVAMALGVEDKVTVPLFEGVQKTQTIRSASDIRDVFINAGIKGEEYDAAWNSFVVKSLVAQQEKAAADVQLRGVPAMFVNGKYQLNPQGMDTSNMDVFVQQYADTVKYLSEKKHHHHHH,2.71,0.26,0.38,,
FkpA-DsbA3 (protein) AEAAKPATAADSKAAFKNDDQKSAYALGASLGRYMENSLKEQEKLGIKLDKDQLIAGVQDAFADKSKLSDQEIEQTLQAFEARVKSSAQAKMEKDAADNEAKGKEYREKFAKEKYEDGKQYTTLEKPVAGAPQVLEFFSFFCPHCYQFEEVLHISDNVKKKLPEGVKMTKYHVNFMGGDLGKDLTQAWAVAMALGVEDKVTVPLFEGVQKTQTIRSASDIRDVFINAGIKGEEYDAAWNSFVVKSLVAQQEKAAADVQLRGVPAMFVNGKYQLNPQGMDTSNMDVFVQQYADTVKYLSEKKHHHHHH,2.01,0.36,0.43,,
"DsbC (enzyme, Escherichia coli, UniProt P0AEG6 21-236, looked up, also called wild-type DsbC) DDAAIQQTLAKMGIKSSDIQPAPVAGMKTVLTNSGVLYITDDGKHIIQGPMYDVSGTAPVNVTNKMLLKQLNALEKEMIVYKAPQEKHVITVFTDITCGYCHKLHEQMADYNALGITVRYLAFPRQGLDSDAEKEMKAIWCAKDKNKAFDDVMAGKSVAPASCDVDIADHYALGVQLGVSGTPAVVLSNGTLVPGYQPPKEMKEFLDEHQKMTSGK",3.15,0.22,5.81,0.067,binds
FkpA-DsbA4 (protein) AEAAKPATAADSKAAFKNDDQKSAYALGASLGRYMENSLKEQEKLGIKLDKDQLIAGVQDAFADKSKLSDQEIEQTLQAFEARVKSSAQAKMEKDAADNEAKGKEYREKFAKEKEDGKQYTTLEKPVAGAPQVLEFFSFFCPHCYQFEEVLHISDNVKKKLPEGVKMTKYHVNFMGGDLGKDLTQAWAVAMALGVEDKVTVPLFEGVQKTQTIRSASDIRDVFINAGIKGEEYDAAWNSFVVKSLVAQQEKAAADVQLRGVPAMFVNGKYQLNPQGMDTSNMDVFVQQYADTVKYLSEKKHHHHHH,3.82,0.45,0.55,,
